Source: article PMC3690481

Columns and labels:
[1] = target: FlAsH-tagged Met1-diUb E16A^prox (UniProt P0CG48); test: fluorescence anisotropy
Lys63-linked diUb = Lys63-linked diUb (UniProt P0CG48); test: fluorescence polarisation; FlAsH-tagged diUb fixed (10 μl of 100 nM plus 10 μl protein), OTULIN C129A variants serially diluted; 20 mM Tris pH 7.4, 100 mM NaCl, 5 mM β-mercaptoethanol, 0.1 mg/ml BSA; one-site binding model; triplicate

Row | Kd [1] [µM] | Kd (Lys63-linked diUb) [µM] | Substance
1 | 0.117 |  | m1; m3 OTULIN:N341D; proximal Ub:E16A
2 |  | 12 | OTULIN (1–352) C129A (from UniProt Q96BN8 1-352) (enzyme)
